Square brackets hold non-standard residues; d marks the D form. * marks the point of attachment. Phe(4-Cl) = N[C@@H](Cc1ccc(Cl)cc1)C(=O)O; Phe(3-F) = N[C@@H](Cc1cccc(F)c1)C(=O)O; Izc = imidazolidine-2-carboxylic acid; Phe(2-F) = N[C@@H](Cc1ccccc1F)C(=O)O; Arg(Me) = CNC(=N)NCCC[C@H](N)C(=O)O; Decanoyl = CCCCCCCCCC(=O)*; dDap = NC[C@@H](N)C(=O)O; Dab = NCC[C@H](N)C(=O)O; azaGly = NNC(=O)O; βAla = NCCC(=O)O
B1: des(1)-Ac-[D-Tyr2,D-Asp3,Thr5,AzaGly7,Arg(Me)9,Trp10]MS10 (peptide)
peptide: Ac-[dY][dD]NTF[azaGly]L[Arg(Me)]W-NH2
SMILES: CNC(=N)NCCC[C@H](NC(=O)[C@H](CC(C)C)NC(=O)NNC(=O)[C@H](Cc1ccccc1)NC(=O)[C@@H](NC(=O)[C@H](CC(N)=O)NC(=O)[C@@H](CC(=O)O)NC(=O)[C@@H](Cc1ccc(O)cc1)NC(C)=O)[C@@H](C)O)C(=O)N[C@@H](Cc1c[nH]c2ccccc12)C(N)=O
B2: des(1)-Ac-[D-Tyr2,Glu3,Thr5,Phe(2F)6,AzaGly7,Arg(Me)9,Trp10]MS10 (peptide)
peptide: Ac-[dY]ENT[Phe(2-F)][azaGly]L[Arg(Me)]W-NH2
SMILES: CNC(=N)NCCC[C@H](NC(=O)[C@H](CC(C)C)NC(=O)NNC(=O)[C@H](Cc1ccccc1F)NC(=O)[C@@H](NC(=O)[C@H](CC(N)=O)NC(=O)[C@H](CCC(=O)O)NC(=O)[C@@H](Cc1ccc(O)cc1)NC(C)=O)[C@@H](C)O)C(=O)N[C@@H](Cc1c[nH]c2ccccc12)C(N)=O
B3: des(1)-Ac-[D-Tyr2,Leu3,Thr5,AzaGly7,Arg(Me)9,Trp10]MS10 (peptide)
peptide: Ac-[dY]LNTF[azaGly]L[Arg(Me)]W-NH2
SMILES: CNC(=N)NCCC[C@H](NC(=O)[C@H](CC(C)C)NC(=O)NNC(=O)[C@H](Cc1ccccc1)NC(=O)[C@@H](NC(=O)[C@H](CC(N)=O)NC(=O)[C@H](CC(C)C)NC(=O)[C@@H](Cc1ccc(O)cc1)NC(C)=O)[C@@H](C)O)C(=O)N[C@@H](Cc1c[nH]c2ccccc12)C(N)=O
B4: des(1)-Ac-[D-Tyr2,D-Trp3,Thr5,Phe(3F)6,AzaGly7,Arg(Me)9,Trp10]MS10 (peptide)
peptide: Ac-[dY][dW]NT[Phe(3-F)][azaGly]L[Arg(Me)]W-NH2
SMILES: CNC(=N)NCCC[C@H](NC(=O)[C@H](CC(C)C)NC(=O)NNC(=O)[C@H](Cc1cccc(F)c1)NC(=O)[C@@H](NC(=O)[C@H](CC(N)=O)NC(=O)[C@@H](Cc1c[nH]c2ccccc12)NC(=O)[C@@H](Cc1ccc(O)cc1)NC(C)=O)[C@@H](C)O)C(=O)N[C@@H](Cc1c[nH]c2ccccc12)C(N)=O
B5: des(1)-Ac-[D-Tyr2,Lys3,Thr5,Phe(2F)6,AzaGly7,Arg(Me)9,Trp10]MS10 (peptide)
peptide: Ac-[dY]KNT[Phe(2-F)][azaGly]L[Arg(Me)]W-NH2
SMILES: CNC(=N)NCCC[C@H](NC(=O)[C@H](CC(C)C)NC(=O)NNC(=O)[C@H](Cc1ccccc1F)NC(=O)[C@@H](NC(=O)[C@H](CC(N)=O)NC(=O)[C@H](CCCCN)NC(=O)[C@@H](Cc1ccc(O)cc1)NC(C)=O)[C@@H](C)O)C(=O)N[C@@H](Cc1c[nH]c2ccccc12)C(N)=O
B6: des(1-3)-Ac-[Thr5,AzaGly7,Arg(Me)9,Trp10]MS10 (peptide)
peptide: Ac-NTF[azaGly]L[Arg(Me)]W-NH2
SMILES: CNC(=N)NCCC[C@H](NC(=O)[C@H](CC(C)C)NC(=O)NNC(=O)[C@H](Cc1ccccc1)NC(=O)[C@@H](NC(=O)[C@H](CC(N)=O)NC(C)=O)[C@@H](C)O)C(=O)N[C@@H](Cc1c[nH]c2ccccc12)C(N)=O
B7: des(1)-Ac-[D-Tyr2,D-Trp3,Thr5,Phe(2F)6,AzaGly7,Arg(Me)9,Trp10]MS10 (peptide)
peptide: Ac-[dY][dW]NT[Phe(2-F)][azaGly]L[Arg(Me)]W-NH2
SMILES: CNC(=N)NCCC[C@H](NC(=O)[C@H](CC(C)C)NC(=O)NNC(=O)[C@H](Cc1ccccc1F)NC(=O)[C@@H](NC(=O)[C@H](CC(N)=O)NC(=O)[C@@H](Cc1c[nH]c2ccccc12)NC(=O)[C@@H](Cc1ccc(O)cc1)NC(C)=O)[C@@H](C)O)C(=O)N[C@@H](Cc1c[nH]c2ccccc12)C(N)=O
B8: des(1)-Ac-[D-Tyr2,Ser3,Thr5,AzaGly7,Arg(Me)9,Trp10]MS10 (peptide)
peptide: Ac-[dY]SNTF[azaGly]L[Arg(Me)]W-NH2
SMILES: CNC(=N)NCCC[C@H](NC(=O)[C@H](CC(C)C)NC(=O)NNC(=O)[C@H](Cc1ccccc1)NC(=O)[C@@H](NC(=O)[C@H](CC(N)=O)NC(=O)[C@H](CO)NC(=O)[C@@H](Cc1ccc(O)cc1)NC(C)=O)[C@@H](C)O)C(=O)N[C@@H](Cc1c[nH]c2ccccc12)C(N)=O
B9: des(1)-Ac-[D-Tyr2,Ala3,Thr5,AzaGly7,Arg(Me)9,Trp10]MS10 (peptide)
peptide: Ac-[dY]ANTF[azaGly]L[Arg(Me)]W-NH2
SMILES: CNC(=N)NCCC[C@H](NC(=O)[C@H](CC(C)C)NC(=O)NNC(=O)[C@H](Cc1ccccc1)NC(=O)[C@@H](NC(=O)[C@H](CC(N)=O)NC(=O)[C@H](C)NC(=O)[C@@H](Cc1ccc(O)cc1)NC(C)=O)[C@@H](C)O)C(=O)N[C@@H](Cc1c[nH]c2ccccc12)C(N)=O
B10: des(1)-Ac-[D-Tyr2,Glu3,Thr5,AzaGly7,Arg(Me)9,Trp10]MS10 (peptide)
peptide: Ac-[dY]ENTF[azaGly]L[Arg(Me)]W-NH2
SMILES: CNC(=N)NCCC[C@H](NC(=O)[C@H](CC(C)C)NC(=O)NNC(=O)[C@H](Cc1ccccc1)NC(=O)[C@@H](NC(=O)[C@H](CC(N)=O)NC(=O)[C@H](CCC(=O)O)NC(=O)[C@@H](Cc1ccc(O)cc1)NC(C)=O)[C@@H](C)O)C(=O)N[C@@H](Cc1c[nH]c2ccccc12)C(N)=O
B11: des(1)-Ac-[D-Tyr2,D-His3,Thr5,AzaGly7,Arg(Me)9,Trp10]MS10 (peptide)
peptide: Ac-[dY][dH]NTF[azaGly]L[Arg(Me)]W-NH2
SMILES: CNC(=N)NCCC[C@H](NC(=O)[C@H](CC(C)C)NC(=O)NNC(=O)[C@H](Cc1ccccc1)NC(=O)[C@@H](NC(=O)[C@H](CC(N)=O)NC(=O)[C@@H](Cc1c[nH]cn1)NC(=O)[C@@H](Cc1ccc(O)cc1)NC(C)=O)[C@@H](C)O)C(=O)N[C@@H](Cc1c[nH]c2ccccc12)C(N)=O
B12: des(1)-Ac-[D-Tyr2,Lys3,Thr5,AzaGly7,Arg(Me)9,Trp10]MS10 (peptide)
peptide: Ac-[dY]KNTF[azaGly]L[Arg(Me)]W-NH2
SMILES: CNC(=N)NCCC[C@H](NC(=O)[C@H](CC(C)C)NC(=O)NNC(=O)[C@H](Cc1ccccc1)NC(=O)[C@@H](NC(=O)[C@H](CC(N)=O)NC(=O)[C@H](CCCCN)NC(=O)[C@@H](Cc1ccc(O)cc1)NC(C)=O)[C@@H](C)O)C(=O)N[C@@H](Cc1c[nH]c2ccccc12)C(N)=O
B13: des(1)-Ac-[D-Tyr2,D-Trp3,Thr5,Phe(4Cl)6,AzaGly7,Arg(Me)9,Trp10]MS10 (peptide)
peptide: Ac-[dY][dW]NT[Phe(4-Cl)][azaGly]L[Arg(Me)]W-NH2
SMILES: CNC(=N)NCCC[C@H](NC(=O)[C@H](CC(C)C)NC(=O)NNC(=O)[C@H](Cc1ccc(Cl)cc1)NC(=O)[C@@H](NC(=O)[C@H](CC(N)=O)NC(=O)[C@@H](Cc1c[nH]c2ccccc12)NC(=O)[C@@H](Cc1ccc(O)cc1)NC(C)=O)[C@@H](C)O)C(=O)N[C@@H](Cc1c[nH]c2ccccc12)C(N)=O
B14: des(1)-Ac-[D-Tyr2,D-Trp3,Dab4,Thr5,AzaGly7,Arg(Me)9,Trp10]MS10 (peptide)
peptide: Ac-[dY][dW][Dab]TF[azaGly]L[Arg(Me)]W-NH2
SMILES: CNC(=N)NCCC[C@H](NC(=O)[C@H](CC(C)C)NC(=O)NNC(=O)[C@H](Cc1ccccc1)NC(=O)[C@@H](NC(=O)[C@H](CCN)NC(=O)[C@@H](Cc1c[nH]c2ccccc12)NC(=O)[C@@H](Cc1ccc(O)cc1)NC(C)=O)[C@@H](C)O)C(=O)N[C@@H](Cc1c[nH]c2ccccc12)C(N)=O
B15: des(1)-Ac-[D-Tyr2,D-Ser3,Thr5,AzaGly7,Arg(Me)9,Trp10]MS10 (peptide)
peptide: Ac-[dY][dS]NTF[azaGly]L[Arg(Me)]W-NH2
SMILES: CNC(=N)NCCC[C@H](NC(=O)[C@H](CC(C)C)NC(=O)NNC(=O)[C@H](Cc1ccccc1)NC(=O)[C@@H](NC(=O)[C@H](CC(N)=O)NC(=O)[C@@H](CO)NC(=O)[C@@H](Cc1ccc(O)cc1)NC(C)=O)[C@@H](C)O)C(=O)N[C@@H](Cc1c[nH]c2ccccc12)C(N)=O
B16: des(1-3)-Decanoyl-[Thr5,AzaGly7,Arg(Me)9,Trp10]MS10 (peptide)
peptide: Decanoyl-NTF[azaGly]L[Arg(Me)]W-NH2
SMILES: CCCCCCCCCC(=O)N[C@@H](CC(N)=O)C(=O)N[C@H](C(=O)N[C@@H](Cc1ccccc1)C(=O)NNC(=O)N[C@@H](CC(C)C)C(=O)N[C@@H](CCCNC(=N)NC)C(=O)N[C@@H](Cc1c[nH]c2ccccc12)C(N)=O)[C@@H](C)O
B17: des(1)-Ac-[D-Tyr2,D-Dap3,Thr5,AzaGly7,Arg(Me)9,Trp10]MS10 (peptide)
peptide: Ac-[dY][dDap]NTF[azaGly]L[Arg(Me)]W-NH2
SMILES: CNC(=N)NCCC[C@H](NC(=O)[C@H](CC(C)C)NC(=O)NNC(=O)[C@H](Cc1ccccc1)NC(=O)[C@@H](NC(=O)[C@H](CC(N)=O)NC(=O)[C@@H](CN)NC(=O)[C@@H](Cc1ccc(O)cc1)NC(C)=O)[C@@H](C)O)C(=O)N[C@@H](Cc1c[nH]c2ccccc12)C(N)=O
B18: des(1)-Ac-[D-Tyr2,β-Ala3,Thr5,AzaGly7,Arg(Me)9,Trp10]MS10 (peptide)
peptide: Ac-[dY][βAla]NTF[azaGly]L[Arg(Me)]W-NH2
SMILES: CNC(=N)NCCC[C@H](NC(=O)[C@H](CC(C)C)NC(=O)NNC(=O)[C@H](Cc1ccccc1)NC(=O)[C@@H](NC(=O)[C@H](CC(N)=O)NC(=O)CCNC(=O)[C@@H](Cc1ccc(O)cc1)NC(C)=O)[C@@H](C)O)C(=O)N[C@@H](Cc1c[nH]c2ccccc12)C(N)=O
B19: des(1)-Ac-[D-Tyr2,D-Gln3,Thr5,AzaGly7,Arg(Me)9,Trp10]MS10 (peptide)
peptide: Ac-[dY][dQ]NTF[azaGly]L[Arg(Me)]W-NH2
SMILES: CNC(=N)NCCC[C@H](NC(=O)[C@H](CC(C)C)NC(=O)NNC(=O)[C@H](Cc1ccccc1)NC(=O)[C@@H](NC(=O)[C@H](CC(N)=O)NC(=O)[C@@H](CCC(N)=O)NC(=O)[C@@H](Cc1ccc(O)cc1)NC(C)=O)[C@@H](C)O)C(=O)N[C@@H](Cc1c[nH]c2ccccc12)C(N)=O

What follows are binders tested against human OT7T175 (metastin receptor) (human) (UniProt Q969F8) (assay: cell-based or functional assay).
Chain of human OT7T175 (metastin receptor) (human) (Q969F8 whole entry L364H): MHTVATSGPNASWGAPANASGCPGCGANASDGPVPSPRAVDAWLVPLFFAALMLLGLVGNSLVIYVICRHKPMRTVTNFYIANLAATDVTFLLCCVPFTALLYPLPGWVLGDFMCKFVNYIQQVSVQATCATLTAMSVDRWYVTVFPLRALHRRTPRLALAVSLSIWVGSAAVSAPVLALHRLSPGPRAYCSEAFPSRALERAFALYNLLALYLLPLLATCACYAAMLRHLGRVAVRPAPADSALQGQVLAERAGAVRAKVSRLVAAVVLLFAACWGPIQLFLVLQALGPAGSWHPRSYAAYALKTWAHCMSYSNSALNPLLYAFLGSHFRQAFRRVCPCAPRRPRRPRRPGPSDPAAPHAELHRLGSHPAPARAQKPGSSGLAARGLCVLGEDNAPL

Going from B1 to B2, the intracellular Ca ion level-increasing activity [specific activity to Metastin (1-54)] (relative to Metastin (1-54)) rises from 3.4 to 3.5.

Compared with B3, B4 is lower in intracellular Ca ion level-increasing activity [specific activity to Metastin (1-54)] (relative to Metastin (1-54)): 3.4 for the first, 1 for the second.

First: B5
Second: B6
The intracellular Ca ion level-increasing activity [specific activity to Metastin (1-54)] (relative to Metastin (1-54)) of the first is lower: 3.1 for the first, 9.8 for the second.

Compared with B7, B8 is higher in intracellular Ca ion level-increasing activity [specific activity to Metastin (1-54)] (relative to Metastin (1-54)): 0.5 for the first, 2.4 for the second.

Going from B9 to B10, the intracellular Ca ion level-increasing activity [specific activity to Metastin (1-54)] (relative to Metastin (1-54)) falls from 2.3 to 2.2.

Compared with B11, B12 is higher in intracellular Ca ion level-increasing activity [specific activity to Metastin (1-54)] (relative to Metastin (1-54)): 1.6 for the first, 3 for the second.

Compared with B13, Ac-[dY][Izc]NTF[azaGly]L[Arg(Me)]W-NH2 [des(1)-Ac-[D-Tyr2,Izc3,Thr5,AzaGly7,Arg(Me)9,Trp10]MS10] is higher in intracellular Ca ion level-increasing activity [specific activity to Metastin (1-54)] (relative to Metastin (1-54)): 0.4 for the first, 2.3 for the second.

Compared with B14, B15 is higher in intracellular Ca ion level-increasing activity [specific activity to Metastin (1-54)] (relative to Metastin (1-54)): 1.1 for the first, 3 for the second.

Compared with B16, B17 is lower in intracellular Ca ion level-increasing activity [specific activity to Metastin (1-54)] (relative to Metastin (1-54)): 7.2 for the first, 2.4 for the second.

Compared with B18, B19 is lower in intracellular Ca ion level-increasing activity [specific activity to Metastin (1-54)] (relative to Metastin (1-54)): 2.6 for the first, 1.4 for the second.
